# Experimental data: patent publication US9994881B2, “Functionalized carboxylic acids and alcohols by reverse fatty acid oxidation in engineered microbes” (William Marsh Rice University, priority 2011, dated 2018)
# Marks after values point to notes of the source that are not given here.
# What was measured:
# [1] = molecular target: T1, E. coli YciA (acyl-CoA thioesterase, NP_415769.1), wild type (Escherichia coli, UniProt P0A8Z0); assay: Thioesterase kinetics (production of TNB at 412 nm); conditions: pH 7.5, 200 mM KCl, DTNB, 25° C.
# T1 sequence (P0A8Z0 1-132): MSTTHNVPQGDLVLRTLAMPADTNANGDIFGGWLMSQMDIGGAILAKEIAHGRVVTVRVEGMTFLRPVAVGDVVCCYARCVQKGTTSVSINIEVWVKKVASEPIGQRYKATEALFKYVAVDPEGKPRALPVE
# Procedure: Cells were lysed using Bacterial Protein Extraction Reagent (B-PER) (Thermo Scientific, Waltham, Mass.) as per the prescribed protocol in order to obtain the supernatant containing the active enzymes.
# For kinetic characterization, an appropriate amount of enzyme was established by checking linear range near predicted KM values. Then, the rates were measured for a range of substrates in order to establish kcat and KM. In the cases of FadB for the crotonase reaction and FadA in the “forward” thiolase reaction coupled with HBD, substrate saturation could not be established, as such, the kcat/KM for the reaction was determined by dividing the linear slope of Velocity vs. [Substrate] by the amount of enzyme used in the assays. For reactions that could be saturated, Velocity vs. [Substrate] was fitted by the EnzKIN Matlab module (mathworks.com/matlabcentral/fileexchange/26653) to establish Vmax and KM.
# Thioesterase activity was monitored by following the production of TNB at 412 nm (ε=4.3 mM^−1 cm^−1)^30. Reactions were carried out in the presence of 100 mM Tris pH 7.5, 200 mM KCl, 25 mM DTNB and 200 μM of the ‘-CoA’ substrate in a volume of 200 μL at 25° C.
# [2] = forward thiolase assay (biosynthetic direction), coupled with caHBD; type: biochemical; conditions: substrate Acetyl-CoA; supernatant fraction; AtoB expressed from pCA24N, FadA from pUCBB-ntH6
# Procedure: (§1) Cultures for enzymatic assays were grown overnight in 100 mL of LB media at 37° C. in 250 mL baffled flasks (Wheaton Industries, Inc., Millville, N.J.) in E. coli BL21 (DE3) cells induced with either 1 mM IPTG (pCA24N, pTrcHis2A) or 1 mM Arabinose (pUCBB-pBAD) at an OD600˜0.6, or expressed constitutively (pUCBB-ntH6). Reactions were monitored on either a Synergy HT plate reader (BioTek Instruments, Inc., Winooski, Vt.) at 25° C. (for reactions monitored at 300 nm or higher) or in a Biomate 5 Spectrophotometer (Thermo Scientific, Waltham, Mass.) for reactions at 263 nm. […]
# (§2) For kinetic characterization, his-tagged proteins of AtoB, FadA, FadB, caHBD, egTER were purified from the B-PER supernatant fractions using Talon Metal Affinity Resin (Clontech Laboratories, Inc., Mountain View, Calif.) using gravity purification. […] Enzyme concentration was established by measuring the absorbance at […] and extinction coefficients predicted for each enzyme by the ProtParam program (web.expasy.org/protparam/).
# (§3) For kinetic characterization, an appropriate amount of enzyme was established by checking linear range near predicted KM values. Then, the rates were measured for a range of substrates in order to establish kcat and KM. […]
# [3] = thiolase activity in the reverse direction (loss of acetoacetyl-CoA at 303 nm); type: biochemical; conditions: substrate Acetoacetyl-CoA; supernatant fraction; AtoB expressed from pCA24N, FadA from pUCBB-ntH6
# Procedure: as §1, §2, §3
Compound,kcat [1] [s⁻¹],Specific Activity [2],Specific Activity [3]
CC(=O)SCCNC(=O)CCNC(=O)[C@H](O)C(C)(C)COP(=O)(O)OP(=O)(O)OC[C@H]1O[C@@H](n2cnc3c(N)ncnc32)[C@H](O)[C@@H]1OP(=O)(O)O [Acetyl-CoA],6.9 ± 0.1,,
AtoB: E. coli thiolase with higher specificity for short-chain acyl-CoA molecules,,0.919 ± 0.002^b μmol/mg/min,0.36 ± 0.05^b μmol/mg/min
